Results from US20250066499A1 (SUNSHINE GUOJIAN PHARMACEUTICAL SHANGHAI, published 2025).
Numbering of substitutions follows the chain as printed. Names may count otherwise. Like-named read-outs stand apart in the source and are kept apart here. One block for each binder: values may come before it.

What was measured:
human CD73-His protein [1] = biological target: T1, human CD73-His protein (human, UniProt P21589 27-549); test: ELISA, biotinylated CD73-His on streptavidin plate
T1 construct: Expressed in HEK-293F with a signal peptide that is not specified; In the ELISAs it was biotinylated with EZ-Link NHS-Biotin (CD73-biotin) and captured on streptavidin; in SPR and the enzyme assay it was used as CD73-His; also called CD73-his antigen; CD73-biotin
T1 sequence: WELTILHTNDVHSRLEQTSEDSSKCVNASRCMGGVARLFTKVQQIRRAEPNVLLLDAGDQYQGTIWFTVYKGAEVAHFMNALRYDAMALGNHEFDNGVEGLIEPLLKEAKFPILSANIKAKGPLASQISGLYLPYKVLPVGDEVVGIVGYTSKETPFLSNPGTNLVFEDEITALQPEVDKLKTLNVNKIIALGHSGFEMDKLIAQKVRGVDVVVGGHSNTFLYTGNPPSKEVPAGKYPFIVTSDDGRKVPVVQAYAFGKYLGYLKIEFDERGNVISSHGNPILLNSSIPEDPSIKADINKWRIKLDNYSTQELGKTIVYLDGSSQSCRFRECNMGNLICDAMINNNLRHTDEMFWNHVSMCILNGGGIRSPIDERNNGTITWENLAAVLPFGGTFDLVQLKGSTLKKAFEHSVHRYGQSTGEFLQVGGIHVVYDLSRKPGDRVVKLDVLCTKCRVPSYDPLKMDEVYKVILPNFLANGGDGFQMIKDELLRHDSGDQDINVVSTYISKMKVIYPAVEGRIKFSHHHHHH
Experimental: (§1) The ELISA plates were coated with SA protein diluted to 1.5 μg/mL in coating buffer (50 mM carbonate coating buffer, pH 9.6) and incubated overnight at 4° C. The supernatant was discarded, and the plates were washed three times with PBST. Then, 5% skimmed milk powder prepared with PBS was added for blocking and the plates were incubated for 2 h at 37° C. After washing the plates once with PBST, CD73-biotin protein (prepared by biotinylating CD73-His protein according to the EZ-Link NHS-Biotin Reagent instructions) was diluted to 0.5 μg/mL and added at 100 μL/well for incubation at room temperature for 1 h. The plates were washed three times with PBST, and the prepared murine-derived monoclonal antibodies against human CD73 were serially diluted with 1% BSA buffer prepared with PBST and added to the ELISA plates at 100 μl/well. The plates were incubated at 37° C. for 1 h. After washing the plates three times with PBST, HRP-labeled goat anti-mouse IgG secondary antibody was added and the plates were incubated for 30 min at 37° C. After washing the plates three times with PBST, the residual droplets were patted dry on absorbent paper as much as possible. Then, 100 μl of TMB color developing solution was added to each well, and the plates were incubated in the dark at room temperature for 5 min for color development. Subsequently, 50 μl of 2M H₂SO₄ stop solution was added to each well to terminate the substrate reaction. The OD values were read at 450 nm using a multimode microplate reader to analyze the binding ability of the tested antibodies to the target antigen human CD73-His.

[2] = biological target: T2, CD73 protein on the surface of tumor cells (human, UniProt P21589 27-549); test: cell-based or functional assay
T2 sequence (looked up): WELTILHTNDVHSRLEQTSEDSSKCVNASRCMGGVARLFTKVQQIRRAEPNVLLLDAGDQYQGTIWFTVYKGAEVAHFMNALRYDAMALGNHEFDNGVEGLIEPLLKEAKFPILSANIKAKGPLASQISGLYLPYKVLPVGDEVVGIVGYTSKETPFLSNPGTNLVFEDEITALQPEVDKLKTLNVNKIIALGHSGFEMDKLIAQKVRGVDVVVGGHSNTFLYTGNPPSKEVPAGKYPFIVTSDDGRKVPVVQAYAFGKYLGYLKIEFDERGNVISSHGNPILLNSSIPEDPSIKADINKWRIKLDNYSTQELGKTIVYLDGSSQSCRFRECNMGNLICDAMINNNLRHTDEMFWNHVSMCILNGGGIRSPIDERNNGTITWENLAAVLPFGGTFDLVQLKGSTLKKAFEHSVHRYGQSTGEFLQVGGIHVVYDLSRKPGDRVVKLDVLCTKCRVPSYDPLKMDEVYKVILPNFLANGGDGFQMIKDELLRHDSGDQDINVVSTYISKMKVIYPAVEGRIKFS

human CD73-His protein [3] = biological target: T1, human CD73-His protein; test: ELISA, biotinylated CD73-His on streptavidin plate; remark: listed apart in the source
Experimental: as §1
The binding affinity of various humanized antibodies to human CD73-his protein was measured with reference to Example 3.

human CD73-His protein [4] = biological target: T1, human CD73-His protein; test: cell-based or functional assay

EC50 (human CD73-His protein [3]): 0.105 nM
B4: 56B10-HuV32 (antibody, human IgG4, V domains shown)
VH: QVQLQQSGAEVKKPGASVKVSCKASGYTFTRYYIYWVRQRPGQGLEWIGWIYPGNFNTKYNEKFKGRATLTADTSASTAYMELSSLTSEDTAVYYCARDVYDYAGFAYWGQGTLVTVSS
VL: DIQLTQSPSFLSASVGDRVTITCKASQGVATAVAWYQQKPGKAPKLLIYWASTRHTGVPSRFSGSGSGTEFTLTISSLQPEDFATYYCQQYSSYPWTFGQGTKVEIK
notes: Humanized

IC50 (nM), inhibition of enzyme activity of soluble CD73-His (AMP/ATP, Cell Titer-Glo) (human CD73-His protein [4]): 4.13 nM
EC50 (human CD73-His protein [3]): 0.112 nM
B5: 56B10-HuV33 (antibody, human IgG4, V domains shown)
VH: B4 VH
VL: B4 VL with L4M, A43S, Y87F
notes: Humanized

EC50 (human CD73-His protein [3]): 0.107 nM
B6: 56B10-HuV23 (antibody, human IgG4, V domains shown)
VH: B4 VH with Q5V, A24T, R40A, T87R
VL: B4 VL with L4M, A43S, Y87F
notes: Humanized

EC50 (human CD73-His protein [1]): 0.09 nM
EC50 (human CD73-His protein [3]): 0.07 nM
B8: 56B10-ch (antibody, human IgG4 S228P, kappa, V domains shown)
VH: QVQLQQSGPELVKPGASVRISCKTSGYTFTRYYIYWVKQRPGQGLEWIGWIYPGNFNTKYNEKFKGKATLTADTSSSTAYMQLSSLTSEDSAVYFCARDVYDYAGFAYWGQGTLVTVSA
VL: DIVMTQSHRFLSTSVGDRVSITCKASQGVATAVAWYQQKPGQSPKLLIYWASTRHTGVPDRFTGSGSGTDFTLTISNVQSEDLADYFCQQYSSYPWTFGGGTKLEIKR
notes: Chimeric: murine variable regions spliced with human IgG4 (S228P) and human kappa constant regions; also called chimeric antibody 56B10-ch

Continued, binder first:

B1: 48A11 (antibody, V domains shown)
VH: QVQLQQPGAELVKPGASVKLSCKASGYTFTSYWMHWVKQRPGQGLEWIGEINPSIGRTNYNEKFKSKATLTVDKSSSTAFMQLSSLTSEDSAVYYCARRVYGTMDYWGQGTSVTVSS
VL: DIKMTQSPSSMYASLGERVTITCKASQDINSYLSWFQQKPGKSPKTLIYRANIWVDGVPSRFSGSGSGQDYSLTISSLEYEDMGIYYCLQYDELYTFGGGTKLEIK
notes: Murine hybridoma antibody; also called murine-derived antibody 48A11
EC50 (human CD73-His protein [1]): 0.0197 µg/mL
IC50 (ng/mL), inhibition of CD73 enzyme activity on H1975 cells (AMP/ATP, Cell Titer-Glo) [2]: 17 ng/mL

B2: 48A11-ch (antibody, human IgG4 S228P, kappa, V domains shown)
VH: B1 VH
VL: DIKMTQSPSSMYASLGERVTITCKASQDINSYLSWFQQKPGKSPKTLIYRANIWVDGVPSRFSGSGSGQDYSLTISSLEYEDMGIYYCLQYDELYTFGGGTKLEIKR
notes: Chimeric: murine variable regions spliced with human IgG4 (S228P) and human kappa constant regions; also called chimeric antibody 48A11-ch
EC50 (human CD73-His protein [1]): 0.067 nM
EC50 (human CD73-His protein [3]): 0.058 nM

B3: 56B10-HuV21 (antibody, human IgG4, V domains shown)
VH: B4 VH with Q5V, A24T, R40A, T87R
VL: B4 VL with K42Q, A43S, S60D
notes: Humanized
EC50 (human CD73-His protein [3]): 0.11 nM

B7: 56B10 (antibody, V domains shown)
VH: B8 VH
VL: DIVMTQSHRFLSTSVGDRVSITCKASQGVATAVAWYQQKPGQSPKLLIYWASTRHTGVPDRFTGSGSGTDFTLTISNVQSEDLADYFCQQYSSYPWTFGGGTKLEIK
notes: Murine hybridoma antibody; also called murine-derived antibody 56B10
EC50 (human CD73-His protein [1]): 0.0269 µg/mL
IC50 (ng/mL), inhibition of CD73 enzyme activity on H1975 cells (AMP/ATP, Cell Titer-Glo) [2]: 20.7 ng/mL

B9: 48A11-HuV23 (antibody, human IgG4, V domains shown)
VH: QVQLVQSGAEVKKPGASVKVSCKASGYTFTSYWMHWVRQAPGQGLEWIGEINPSIGRTNYNEKFKSRATLTVDKSTSTAYMELSSLRSEDTAVYYCARRVYGTMDYWGQGTLVTVSS
VL: DIQMTQSPSSLSASVGDRVTITCKASQDINSYLSWFQQKPGKSPKLLIYRANIWVDGVPSRFSGSGSGQDYTFTISSLQPEDIATYYCLQYDELYTFGQGTKVEIK
notes: Humanized
EC50 (human CD73-His protein [3]): 0.081 nM

B10: 48A11-HuV22 (antibody, human IgG4, V domains shown)
VH: B9 VH
VL: B9 VL with L46T
notes: Humanized
IC50 (nM), inhibition of enzyme activity of soluble CD73-His (AMP/ATP, Cell Titer-Glo) (human CD73-His protein [4]): 9.02 nM
EC50 (human CD73-His protein [3]): 0.093 nM
